# From the nanobody polyreactivity screen of Harvey et al. (2022)
# Experiment: yeast display, Sf9 membrane polyspecificity reagent, FACS + sequencing; frameworks hold sequencing errors
# How it was run: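 Nanobodies from a synthetic yeast display library (Saccharomyces cerevisiae BJ5465), induced 36–48 hours with galactose, were stained 1 hour at 4 °C with 10% biotinylated, detergent-solubilized Sf9 membrane reagent, enriched on streptavidin microbeads, then FACS-sorted. Anti-HA (expression) and streptavidin (reagent binding) fluorescence set low and high (top ~1%) gates. Polyreactivity labels come from the gate of origin. Genes were colony-PCR amplified, MiSeq 2 × 250 sequenced and filtered by CDR length.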
row,Sequence,polyreactivity (PSR sort gate)
1,QVQLVESGGGLVQAGGSLRLSCAASGGTFPRYAMGWYRQAPGKERELVAAISRSGGSTYYADSVKGRFTISRDNAKNTVYLQMNSLKPEDTAVYYCATGYSYIMDYWGQGTQVTVSS,high polyreactivity
2,QVQLVESGGGLVQAGGSLRLSCAASGYTFGTYDMGWYRQAPGKERELVAAISIGGSTNYADSVKGRFTISRDNAKNTVYLQMNSLKREDTAVYYCAAEVNVGTLLLSVIVEDGDYWGQGTQVTVSS,low polyreactivity
3,QVQLVESGGGLVQAGGSLRLSCAASGRIFWGYSMGWYRQAPGKERELVAAITSGGRTYYADSVKGRFTISRDNAKNTVYLQMNSLKPEDTAVYYCAAVYVPYYWLGRSRGLDYWGQGTQVTVSS,high polyreactivity
4,QFQLVESGGGLVQAGGSLRLSCAASGRIFDFYAMGWYREAPGKERELVAAISWRGGSTYYAHSVKGRFTISRDNAKNTVYLQMNSLKPEDTAVYYCATRFGPRYYWGQGTQVTVSS,low polyreactivity
5,QVQLVESGGGLVQAGGSLRLSCAASGYIFAWNAMGWYRQAPGKERQLVAAIRSSSGRTYYADSVKGRFTISRDNAKNTVYLLMNSLKPEDTAVYYCAASYAGGAVYYKYYSWGQGTQVTVSS,high polyreactivity
6,QVQLVESGGGLVQAGGSLRLSCSASGIIFSEYAMVWYRQAPGKERELVAAISKSSGSTRYADSVKGRFTISRDNAKNTVYLQMNSLKPEVTAVYYCAAVYRGVVVYGYWGQGTQVTVSS,high polyreactivity
7,QVQLVESGGGLVQAGASLRLSCAASGSTFKYYTMGWYRQAPGKERELVAAISFSGARTYYADSVKGRFTISRDNAKNTVYLQMNSLKPEDTAVYYCAKDRQYYYWGQGTQVTVSS,high polyreactivity
8,QVQLVESGGGLVQAGGSLRLSCAASGFIFTFYAMGWYRQAPGKEREFVASIDWGDGSTYYADSVKGRFTISRDNAKNTVYLQMNSLKPEDTAVYYCAHDYDGYVWDTEYDYWGQGTQVTVSS,low polyreactivity
9,QVQLVESGVGLVQAGGSHRLSCAASGFTFLINAMGWYRQEPWKERELVAAIRSGGSTNYADSVKGRFTISRDNAKNTVYLQMNSLKPEETAVYYCAARRYYPDKYRYGYWGQGTQVTVSS,high polyreactivity
10,QVQLVESGGGLVQAGGSLRLSCAASGFTFGYYTMGWYRQAPGKERELVAAISSGGSTNYADSVKGRFTISRDNAKNTVYLQMNSLKPEDTAVYYCTATQIGPYYLPFDSWGQGTQVTVSS,high polyreactivity
11,QVQLVESGGGLVQAGGSLLLSSAASGRTFWMYAMGWNRQAPGKESELVAGITWRGGSTYYADSVKGRFTISRDIAKNTVYLQMNSQKPEDTAVYYFAAEFWVSRSIWVYYYWGQGTQVTVSS,high polyreactivity
12,QVQLVESGGGLVQAGGSLRLSCAASGRILTGYAMGWYRQAPGKERELVAAISNDTDSTHYADSVKGRFTISRDNAKNTVYLQMNSLKPEDTAVYYCATDAPLQKRWRRFDYWGQGTQVTVSS,low polyreactivity
13,QVQLVESGGGFVQAGGSLRLSCAASGSTFSHYTMGWYSQAPGNERELLAAINYGGASTYYADSVKGRFTISRDNAKNTVYLQMNSQKPEDTAVYYCAAANRPSEQDNYWGQGTQVTVSS,low polyreactivity
14,QVQLVESGGGLLQAGGSLRLSCAASGFNFGRYAMGWYRQAPGKERELVATISRSGGSTYYADSVKGRFTISRDNSKNTVFLQMNSLKPEDTAVYYCNALILPTKMGYWGQGTQVTVSS,low polyreactivity
15,QVQLVESGGGLVQAGGSLRLSCAASGLTFWRYVMGWYRQAPGKERELVATISIGGSTNYADSVKGRVTISRDNAKNTVYLQMNSLKPEDTAVYYCAAKFRGDVFPYYYWGQGTQVTVSS,high polyreactivity
16,QVQLVESGGGLVQAGGSLRLSCAASGSIFWTYAMGWYRQAPGKEREFVAAITFNYGSTYYADSVKGRFTISRDTAKNTVYLQMNSVKPEDTAVYYCNADTWYYYNFWSYIEYDYWGQGTQVTVSS,high polyreactivity
17,QDQLVESGGGLVQAGGSLRLTCAASGSIFTAYTMGWYRQAPVKERELVAAITERGGSTYYADSVKGRFTISRDNAKNTFYLQMNRMKPEDTAVYYCAASTLKDIYLWFRVDYWGQGTQVTLSS,low polyreactivity
18,QVQLVESGGGLVQAGGSLRLSCAASGFTFAYYVMGWYIQAPGKETELVAAISISGARTYYAESVKGRFTISRDNSKNTVYLQMNRLKPEDTAVYYCAADRRTDGHDYWGLGTQVTVSS,high polyreactivity
19,QVQLVESGGGLVQAGGSLRLSCAASGITFKYYTMGWYRQAPGKERELVAAISRSGGSTYYADSVKGRFTISRDNAKNTVYLLMNSLKPEDTAVYYCAGERGAYRGVTFTYGYWGQGTQVTVSS,high polyreactivity
20,QVQLVESGGGLVQAGGSLRLSCAASGRTFYSYAMGWYRQAPGKERELVAAITSDGGTYYADSVKGRFTISRDNAKNTVYLQMNSLKPEDTAVYYCNAVGGWVTHWLLREGDYWGQGTQVTVSS,low polyreactivity
21,QVQLVESGGGLVQAGGSLRLSCAASGITFVANAMGWYRQAPGKERELVAGITQTGGSTYYADSVKGRFTISRDNAKNTVYLQMNSLKPEDTAVYYCAATYRRLRYGKLLYYWGQGTQVTVSS,high polyreactivity
22,QVQLVESGGGLVQAGGSLSLSCAASGRTFYVYAMGWYIQAPGKERELVATISRGGSTTYADSVKGLFTISRDNAKNTVYLQMNSLKPEDTAVYYCATELLGGRRTVAYFWGQGSQVTVSS,low polyreactivity

row,Sequence,polyreactivity (PSR sort gate)
1,QVQLVESGGGLVQAGGTLRLSCAPSGSTFFPYAMGWYRQAPGKEREFVSAIRGSGGVSTYYADSVKGRFTISRDNAKNTVYLQMNSLKPEDTAVYYCAKYVARRVPRGFYYWGQGTQVTVSS,high polyreactivity
2,QVQLVESGGGLVQAGGSLRLSCAASGSTFVPYAMGWYRQAPGKEREFVAGITWSVGSTYYADSVKGRFTISRDNAKNTVYLQMNSLKPEDTAVYYCNAEIYAYFLWWYGYWGQGTQVTVSS,low polyreactivity
3,QVQHVESGGGLVQAGGSLRLSCAASGFIFYDKAMGRYRTAPGKERELVAGITYRTGSTFYADSVKGRFTISRDNAKNTVYLQMISLKPEDTAVFYCAAVRRISWYTPVNTRRYYYWGQGTQVTVSS,high polyreactivity
4,QVQLVESGGGLVQAGGSLRLSCAASGSNFVEYAMGWYRQAPGKERELVAGISSGGITSYADSVKGRFTISRDNAKNTVYLQMNSLKPEDTAVYYCATDPYKWFYSSYYLLQEVEYWGQGTQVTVSS,low polyreactivity
5,QVQLVESGGGLVQAGGSLRLSFAASGYTFSPYAMGWYRQAPGKERELVAVISSSASTYYADSVKGRFTISRDNAKITVYLQMNSLKPEDTAVYYCAAQPAHPRRYDYWGQGTQVTVSS,high polyreactivity
6,QVQLVESGGALVQAGGSLRLSCAASGFIFRYYAMGWYRQAPWKERELVATITGRGGSTYYADSVKGRFTISRDNAMNTVYLQMNSLKPEDTAVYYCAKRGYGRYYAYDYWGQGTQVTVSS,high polyreactivity
7,QVQLVESGGGLVQAGGSLRLSCAASGYTFAWYAMGWYRQAPGKERELVAAITVSGGSTYYADSVKGRFTISRDNAKNTVYLQMNSLKPEDTAVYYCAAVGKSPSRFGYWGQGTQVTVSS,low polyreactivity
8,QVQLVESGGGLVQAGGSLRLSCAASGRIFYINAMGWYIQAPGKERELVASITGSGGRTYYADSVKGRFTISRDNAKNTVYLQMNSLKPEDTAVYYCNADLYVGYLYYLYDYWGQGTQVTVSS,low polyreactivity
9,QVQLVESGGGLVQAGGSLRLTCAASGRTYFYNAMGWYIKAPGKERELVAAISTNGGSTYYADSVNGRFTISRDNAKNTVYLQMNSLKPEDTAVYYCNTYAKPHRSGGGLGGHYYWGQGTQVTVSS,low polyreactivity
10,QVQLVESVGGLVQAGGSLRLSCAGSGRIFRNYAMGWYRQAPGKERELVAAISDSSGSTYYADSVKGRFTISRDNAKNTVYLQMNILKPEHTAVYFCRYYFGSGYYYWGQGTQVTVSS,high polyreactivity
11,QVQLVESGGGLVQAGGSLRLSCAASGRTISINAMGWYRQAPGKERELVADISKSGGRTYYADSVKGRFTISRDNAKNTVYLQMNSLKPEDTAVYYCAKGAYYVPVIYHAVYSWGQGTQVTVSS,low polyreactivity
12,QVQLVESGGGLVQAGGSLRLSCAASGFTIPVYAMGWYRQAPGKEMELVADITESGDSTYYADSVKGRFTISRDNAKNTVYLQMNSLKPEDTAVYYCAADGGWFWSLFYTFAFDYCGQGTQVTVSS,low polyreactivity
13,QVHLVESGGGLVQAGGSLRLSCAASGSIFPYAMGWYRHAPAKERELVAVISWSGASTYYADSVKGRFTISRDNAKNTVYLQMNSLKQEDTAVYYCAVYRYYKLVHLYGYDYWGQGTQVTVSS,high polyreactivity
14,QVQLVESGGGLVQAGGSLRLICAASGNTFYGYAMGWSRPAPGKERELVASITLSGDSTYYADSVKGRFTISRDNAKNTVYLQMNSLKPEDTAVYYCAGVYTYPLGYYHYTYDYWGQGTQVTVSS,low polyreactivity
15,QVQLVESAGGLVQAAGSLRLSCDASGRIFWYNAMGWYRQEPGKERELVAAISSGGSTSYADSVKGRFTISRDNAKNTVYLQMNSLKPEDTAVYYCDKDDERKQGQYPPYDSWGQGTQVTVSS,low polyreactivity
16,QVQLVESGGGLVQAGGSLRLSCAASGSTFEQNAMGWYRPAPGKEREFVAAITGSGGSTYYADSVKGRFTISRDNAKNTVYLQMNSMKPEDTAVYYCAADIQDGWYWWDIYDYWGQGTQVTVSS,low polyreactivity
17,QVQLVESGGGLVQAGGSLRLSCAASGSTFYNYAMGWYRQEPGKERELVAAINYSGGDTYYADSVKGRFTISRDNAKNTVYLQMNSLKPEDNAVYYCNAEWDYYSSNPVQNDYDYWGQGTQVTVSS,high polyreactivity
18,QVQLVESGGGLVQAGGSLRLSCAASGLTFPFYTMGWYRQAPGKERELVAAISRRGGSTYYADSVKGRFTISRDNAKNTDYLQMNSMKPVDTAVYYCAADKYSWYDYWGQGTEVTVSS,low polyreactivity
19,QVQLEESGGGLVQAGGSLRLSCAASGFTFYYYAMGWYRQAPGKERELVAAINTSGGSTYYADSVKGRFTNSRDNAKNTVYLQMNSLKPVDTAVYYCAAVDGFWTQYPRMGYWGQGTQVTVSS,high polyreactivity
20,QVQLVESGRGLVQAGGSLRLSCAASGFTFDGNAMGWYRQAPGIERELFARITWDDGSTYYADSVKGRFTISRDNAKNTVYLQMNSLNPEDTAVYYCAAEWCTDGYQVLPVDYDYWGQGTQVTVSS,low polyreactivity
21,QVQLVESGGGLVQAGGSLRLSCAASGSIFHPYAMGWYRQAPGKERELVAAISKSGGNTYYADSVKGRFTISRDNAKNTVYLQMNSLKPEDTAVYYCAALDYWGQGTQLTVSS,low polyreactivity
